Source: publication PMC4402518

Biological target: Hop2;Mnd1 (Giardia lamblia ATCC 50803;Giardia lamblia ATCC 50803) (UniProt E2RTU1)
Experiment: fluorescence anisotropy
Conditions: Fluorescence anisotropy: 20 mM Tris-HCl pH 7.5, 100 mM NaCl, 5 mM MgCl2, 25 C, 50 nM DNA, triplicate, Exo I assay conditions not in material

**Q.** For “GCGGGTAATCCAGATGTTCCACGTGAAACAGAACAACTAA (double strand) [40 bp dsDNA]”, which Kd (5 mM Mg2+) is on record?
**A.** Its Kd is 100 nM.

**Q.** And the binding signal (fold weaker than with 5 mM Mg2+) (no Mg2+)?
**A.** The binding signal (fold weaker than with 5 mM Mg2+) was 10.
